B1: GMCL1 (parent)
chain: RPDTGDDAAGHGFCYCAGSHKRKR

Variants of: B1
Assay: protein stability index of a GFP-peptide fusion (GPS, HEK-293T) (PSI 1-6); higher = more stable
Details: c terminus: a fixed tail appended
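Note: lentivirally expressed fusions sorted by FACS into six bins by GFP to DsRed ratio, PSI derived from sequencing read proportions per bin multiplied by bin number.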

Protein stability index, by site and new letter:
Y15: Q 2.74, A 3.12, I 3.09, P 3.36, V 2.8, H 2.98, G 3.35, W 2.82, R 3.41, N 2.43, L 2.84, M 2.89, F 2.6, K 2.5, C 2.68, S 2.77, T 2.51, E 2.77, D 3.36
C14: E 4.99, G 4.85, H 4.7, D 4.75, I 4.3, Y 4.88, N 4.62, K 4.98, V 4.3, R 4.87, W 3.82, S 5.02, P 4.31, Q 4.7, A 4.73, M 4.9, F 3.88, T 4.89, L 3.66
F13: S 2.84, E 3.99, N 3.4, R 2.94, Q 3.9, C 2.19, K 3.35, Y 2.65, L 2.87, V 3.55, I 3.02, G 3.69, M 3.25, D 3.82, P 3.55, A 3.12, H 3.86, T 3.34, W 3.45
G18: H 2.53, R 3.29, T 3.53, W 2.09, I 2.9, M 2.71, Q 3.12, S 3.36, A 3.24, L 2.66, K 3.58, D 2.84, E 3.6, C 2.77, Y 2.98, P 3.53, V 2.75, F 2.7, N 2.85
A17: I 2.97, L 2.59, Q 3.02, S 2.77, G 2.9, P 3.7, T 3.13, H 2.29, N 3.61, R 2.9, Y 3.25, M 2.99, V 2.56, W 3.01, C 2.05, D 3.68, K 2.82, F 2.2, E 3.61
C16: Y 4.09, M 4.17, A 4.94, D 5.04, L 4.11, F 4.72, E 5.33, W 4.36, K 4.81, T 4.74, S 4.97, V 4.72, I 4.57, R 4.59, G 4.85, N 4.56, P 4.71, Q 4.92, H 3.87
G5: T 2.97, S 3.5, W 2.59, N 3.17, R 3.15, V 2.99, P 3.48, Y 3.27, Q 2.87
G12: S 2.88, H 3.05, E 2.9, T 3.62, L 2.38, V 3.73, D 3.14, W 2.36, R 3.11, Q 3.16, C 2.45, A 2.52, N 3.14, M 2.79, K 3.21, I 3.02, P 3.1, Y 2.71, F 3.02
G10: W 2.84, T 3.18, I 2.71, D 3.37, N 3.71, P 2.73, K 3.22, L 2.36, M 3.2, V 3.49, R 2.81, F 2.9, H 3.1, E 3.14, A 2.86, C 2.78, Y 2.91, S 2.95, Q 3.36
H11: F 3.27, T 4.18, N 2.32, C 2.47, Q 3.22, I 3.26, W 2.95, K 3.16, D 3.45, L 3.14, P 3.21, R 3.43, Y 2.84, A 3.64, E 3.49, V 2.75, G 3.18, M 3.15, S 3.24
A9: R 3.46, W 2.96, P 3.01, E 3.05, G 3.43, N 3.52, M 2.96, Q 3.06, I 2.65, Y 3.05, V 2.96, H 2.48, C 3.89, S 2.7, T 3.55, D 3.81, K 3.07, F 2.72, L 2.71
K21: E 2.57, F 2.52, W 2.29, I 2.01, M 2.65, H 2.35, R 2.67, N 2.83, G 2.39, T 2.74, D 3.15, P 3.03, C 3.23, Q 2.79, Y 2.11, L 2.69, S 2.34, V 2.79, A 3.07
K23: A 2.2, C 3.71
S19: E 2.98, I 2.96, Y 2.53, M 2.52, P 2.45, G 3.14, H 2.77, A 3.62, F 2.63, T 3.65, K 3.78, R 3.26, D 2.86, V 2.72, N 3.31, W 2.45, L 2.82, Q 3.16, C 3.82
A8: K 2.94, S 3.72, N 2.96, Y 2.61, T 2.73, H 3.61, Q 3.16, D 2.97, E 3.26, P 3.09, R 3.08, W 3.38, C 3.23, L 2.36, G 3.11, V 3.18, F 2.61, M 2.85, I 3.06
R22: E 3.56, Y 2.01, S 2.77, L 2.57, W 2.6, F 1.96, N 2.62, Q 2.66, G 2.43, H 2.56, M 2.12, C 3.59, T 2.64, K 3.08, D 3.55, A 2.76, P 2.79, V 2.65, I 3
D7: W 2.2, C 3.02, H 3.09, K 3.03, T 3.49, N 3.13, V 3.16, F 2.83, S 3.47, L 3.03, M 3.44, I 3.08, E 3.95, G 3.3, P 3.28, A 3.46, Q 2.83, Y 2.99, R 3.51
H20: K 4.09, R 3.31, A 3.15, E 3.3, M 3.03, L 3.18, Y 3.12, D 3.35, S 3.95, I 3.9, G 3.41, W 2.62, F 3.24, V 2.79, C 3.26, T 3.05, N 3.04, Q 3.59, P 2.85
D6: Q 3.46, H 2.8, K 3.27, C 3.8, V 2.93, E 3.46, S 2.97, I 3.05, T 2.89, L 3.13, P 2.96, G 3.16, A 3.21, F 2.73, R 3.23, W 2.99, Y 3.15, N 3.57, M 2.79

From the supplement of paper PMC10567573
